Experimental data: patent US20240376180A1 (DEUTSCHES ZENTRUM FUR NEURODEGENERATIVE ERKRANKUNGEN E V …, published 2024)

Biological target: SARS-CoV-2 Spike RBD-Fc (SARS-CoV-2)
Test: ELISA, RBD-Fc captured via anti-rabbit IgG, concentration-dependent binding

Binder	EC50
HL CV07-250 (antibody, V domains shown) VH: QVQLVQSEAEVKEPGASVEVSCKASGYNFTNFAISWVRQAPGQGLEWMGWISGYNGDTNSAQKFLGRVTMTTDTSTTTAYMELRSLRSDDTAVYYCAGSDNYGFPYNGMDVWGQGTTVTVSS VL: QSALTQPPSASGSPGQSVTISCTGTSSDLGAYHFVTWYQHYPGKAPKVMIYGVRKRPSGVPDRFSGSKSGNTASLTVSGLQDEDEADYYCSSYAGNNDFVFGGGTKLTVLS	8.7 ng/mL
HL CV07-255 (antibody, V domains shown) VH: not shown VL: QSALTQPASVSGSPGQSITISCTRTSSDVESYNLVSWYQQHPGKAPKLMIYEVSKRPSGISNRFSGSKSGNTASLTISGLQAEDEADYYCCSYAGHSTWVFGGGTELTVLG	4.8 ng/mL
HL CV07-262 (antibody, V domains shown) VH: QVQLVQSGAEVKKPGASVKVSCKASGYTFTGYYMHWVRQAPGQGLEWMGWINPNSGGTNYAQTFQGRVTMTRDTSITTTYMELSRLRSDDTAVYYCARVGWYDFGTPGDYYYYYGMDVWGQGTTVTVSS VL: QSALTQPASVSGSPGQSITISCTGTSSDVGSYNLVSWYQQHPGKAPKLMIYEGSKRPSGVSNRFSGSKSGNTASLTISGLQAEDEADYFCCSYAGTSTFVFGTGTKVTVLG	12.1 ng/mL
HL CV07-315 (antibody, V domains shown) VH: EVQLVESGGGLVQPGRSLRLSCAASGFTFDDYAMHWVRQAPGKGLEWVSGISWNSGSIGYADSVKGRFTISRDNAKNSLYLQMNSLRAEDTALYYCAKDFLWDLHPPRYYGMDVWGQGTTVTVSS VL: QSVLTRPPSVSAAPGQKVTISCSGSSSNIGNNYVSWYQQLPGTAPKLLIYENNKRPSGIPDRFSGSKSGTSATLGITGLQTGDEADYYCGTWDSSLNGVFGGGTKLTVLG	7.2 ng/mL
HK CV07-287 (antibody, V domains shown) VH: QVQLVQSGPEVKKPGTSVKVSCKASGFTFTSSAMQWVRQARGQRLEWIGWIVVGSGNTNYAQKFQERVTITRDMSTSTAYMELSSLRSEDTAVYYCAAPYCSSTNCYDAFDIWGQGTMVTVSS VL: not shown	5.9 ng/mL
HK CV38-139 (antibody, V domains shown) VH: EVQLVESGGGLVQPGGSLRLSCAASGFTVSSNYMSWVRQAPGKGLEWVSVFYSGGSTFYADSVKGRFTISRDNSKNTLYLQMNSLRAEDTAVYYCARGHYDLFDYWGQGTLVTVSS VL: DIQLTQSPSFLSASVGDRVTITCRASQGISSYLAWYQQKPGKAPKLLIYAASTLQSGVPSRFSGSGSGTEFTLTISSLQPEDFATYYCQQLNSYPPGTFGPGTKVDIKR	8.9 ng/mL
HK CV38-113 (antibody, V domains shown) VH: EVQLVESGGGLVQPGGSLRLSCAASGFTVSSNYMSWVRQAPGKGLEWVSVIYSGGSTYYADSVKGRFTISRHNSKNTLYLQMNSLRAEDTAVYFCARGGRLADAAGDYWGQGTLVTVSS VL: not shown	5.2 ng/mL
HK CVX1-126 (antibody, V domains shown) VH: EVQLVESGGGLVQPGGSLRLSCAASGLTVSSNYMSWVRQAPGKGLEWVSVIYSGGSTYYADSVKGRFTISRHNSKNTLYLQMNSVRAEDTAVYYCARDLSEGGMDVWGQGTTVTVSS VL: DIQMTQSPSSVSASVGDRVTITCRASQGISSWLAWYQQKPGKAPKLLIYAASTLQSGVPSRFSGSGSGTDFTLTISSLQPEDFATYYCQQANGFPPLFGGGTKVEIKR	5.5 ng/mL
HK CVX2-106 (antibody, V domains shown) VH: QVQLVQSGAEVKKPGSSVKVSCKASGGTFSSYAISWVRQAPGQGLEWMGGIIPIFGTANYAQKFQGRVTITADESTSTAYMELSSLRSEDTAVYYCATRKETTVTTSLVYGMDVWGQGTTVTVSS VL: not shown	5.6 ng/mL
HL CV07-222 (antibody, V domains shown) VH: QVQLVQSGAEVKKPGASVKVSCKASGYTFTDYYVHWVRQAPGQGLEWMGWINPISGGTNYAQKFQGRVTMTRDTSISTAYMELSRLRSDDTAVYYCARGPYYYDSSGSLGAFDIWGQGTMVTVSS VL: QSALTQPASVSGSPGQSITISCTGTSSDVGSYNLVSWYQQHPGKAPKLMIYEGSKRPSGVSNRFSGSKSGNTASLTISGLQAEDEAHYYCCSYAGGSTSYVFGTGTKVTVLG	5.5 ng/mL
HL CV07-270 (antibody, V domains shown) VH: QVQLVESGGGLVKPGGSLRLSCAASGFTFSDYYMTWIRQAPGKGLEWVSYISSSGSTIYYADSVKGRFTISRDNAKNSLYLQMNSLRAEDTAVYYCARARGSSGWYRIGTRWGNWFDPWGQGTLVTVSS VL: QSALTQPASVSGSPGQSITISCTGTSSDVGGYNYVSWYQQHPGKAPKLMIYEVSNRPSGVSNRFSGSKSGNTASLTISGLQAEDEADYYCSSYTSSSNVVFGGGTMLTVLG	14.2 ng/mL
HL CV07-283 (antibody, V domains shown) VH: QVQLVQSGAEVKKPGASAKVSCKASGYTFTGYYIHWVRQAPGQGLEWMGLINPISGGTNYAQKFQDRVTMTRDTSISTAYMELSRLRSDDTAVYYCVRGPFYYDSSGPLGGMDVWGQGTTVTVSS VL: QSALTQPASVSGSPGQSITISCTGTSGDVGGYNYVSWYQQHPGKAPKLMIYEVSNRPSGVSNRFSGSKSGNTASLTISGLQAEDEADYYCSSYTSSSTYVFGTGTKVTVLG	4 ng/mL
HK CV07-209 (antibody, V domains shown) VH: QVQLVESGGGLVKPGGSLRLSCAASGFTFSDYYMSWIRQAPGKGLEWVSYISSSVSTIYYADSVKGRFTISRDNAKNSLYLQMNSLRAEDTAVYYCARDGVIPPRFDYWGQGTLVTVSS VL: not shown	4.1 ng/mL
HK CV38-221 (antibody, V domains shown) VH: EVQLVESGGGLVQPGGSLRLSCAASGITVSSNYMIWVRQAPGKGLEWVSVIYSGGSTYYADSVKGRFTISRDNSKNTLYLQMNSLRAEDTAVYYCARGFGDYYFDYWGQGTLVTVSS VL: EIVLTQSPGTLSLSPGERATLSCRASQSVSSSYFAWYQQKPGQAPRLLIYGASSRATGIPDRFSGSGSGTDFTLTISRLEPEDFAVYYCQQLYTFGQGTKLEIKR	6.4 ng/mL
